As usually defined, the stoichiometry N is the number of molecules, sites or subunits per partner or assembly. A word on the Km: it is the substrate concentration at which the rate is half of its maximum.

For data set [1], the target named is α-glucosidase QsGH13 from Qipengyuania seohaensis sp. SW-135 (Qipengyuania seohaensis sp. SW-135). The experiment in a line: crystal structure; QsGH13 at 10 mg/ml, hanging drop vapour diffusion at 4°C, 0.1 M Tris-HCl pH 8.5, 0.2 M NaCl, 20% PEG 3,350; space group P212121, two monomers per asymmetric unit.
For a further data set, the target named is T1, QsGH13 (Qipengyuania seohaensis, UniProt A0A8X6EH34).
T1 construct: N-terminal His6-SUMO tag cut off with Ulp1; expressed in E. coli BL21(DE3) from pSMT3; dimer; primers encode N-terminus MSGKLP and C-terminus ILETDT (translated from primers)
Put plainly: residual activity, p-nitrophenol release, absorbance […] nm. Conditions: product tolerance test, 2 M glucose, substrate pNPαGlu, 20 mM Gly-NaOH pH 10.0, 45 °C. Type of data set: biochemical.

Substrate in the data set “purified protein”: O=[N+]([O-])c1ccc(O[C@H]2O[C@H](CO)[C@@H](O)[C@H](O)[C@H]2O)cc1
The experiment in a line: purified protein. The settings on record: pH 10.0 (20 mM Gly-NaOH), 45 °C, 0.025-2.0 mM substrate.

Take “α-glucosidase QsGH13 from Qipengyuania seohaensis sp. SW-135 (enzyme)”: the stoichiometry N in data set [1] was 2.

Regarding `OC[C@H]1OC(O)[C@H](O)[C@@H](O)[C@@H]1O` (stereo partly drawn) [glucose], the “% activity retained at 2 M” value at QsGH13 is reported as 30%.

B1: QsGH13 (Qipengyuania seohaensis) (protein)
chain: MSGKLPWWKGAVIYQIYPRSFMDSNGDGIGDLPGIAQRLPHIAELGADAIWISPFFKSPMKDFGYDVSDYCDVDPIFGTLEDFDAVIARSHELGLKVLIDQVYSHTSDDHEWFAESRSNRDNPKAEWYVWADAKPDGSPPSNWQSVFGGPAWTWDARRGQYYLHNFLSSQPQLNLHNREAQQAVLDVMRFWLERGVDGFRIDALNFAMHDPQLRDNPPAPPTDKQRTRPFDFQLKTYNQSHADIPAFIERIRALTDEFDGIFTVAEVGGDDAVREMKAFTEGETHLNSAYGFNFLYAEALTPQLVCSALAEWPEEPDLGWPSWAFENHDAPRALSRWCTPEDRQAFARLKTLLLMSLRGNAILYYGEELGLTQVDIPFDQLHDPEAIANWPLTLSRDGARTPMPWDDSECAGFGSTAPWLPVGDDNRPRSVAAQLGDANSLLKFTRQAIALRKANPALHHGHVVECNHDGDLLELVREAGGQRLRCRFNLGSKPVECDDCEGRTLLAINGAEPTALPPFAAIILETDT
For the molecule B1, the Km in the data set “purified protein” amounted to 295.2 ± 32.2 µM.

The values are drawn from publication PMC8928221, “Structure and Function Insight of the α-Glucosidase QsGH13 From Qipengyuania seohaensis sp. SW-135” (Frontiers in Microbiology, 2022).
